Legend:
[1] = molecular target: CLDN18.1 expressed on HEK 293 cells (UniProt P56856); assay: FACS, secondary antibody alone on HEK 293 cells expressing CLDN 18.1
[2] = molecular target: human Claudin 18.2 (CLDN18.2) expressed on cells (human) (UniProt P56856); assay: FACS, secondary antibody alone on HEK 293 cells expressing CLDN 18.2

Q: Which MFI [1] does the source give for Sec. antibody here?
A: 18

Q: What about the MFI [2] of the same substance?
A: 53
